Consider one molecule from publication PMC2605266 (2008).

Assay [1] has as its target GST-VAMP2 harbouring only the SNARE motif (VAMP2 lacking the first 30 amino acids) (Rattus norvegicus (Rat), UniProt P63045). Briefly: GST pull-down, immunoblot.
In assay [2] the target is GST fused to the cytosolic domain of VAMP2 (Rattus norvegicus (Rat), UniProt P63045). The experiment in a line: GST pull-down, immunoblot. For orientation: Immunoblotting shows a protein as a band on a membrane.
Chain of GST fused to the cytosolic domain of VAMP2 (P63045 1-92): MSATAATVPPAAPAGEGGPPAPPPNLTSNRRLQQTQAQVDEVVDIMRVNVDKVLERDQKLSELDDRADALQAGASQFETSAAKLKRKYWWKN

Chain of GST-VAMP2 harbouring only the SNARE motif (VAMP2 lacking the first 30 amino acids) (P63045 31-92): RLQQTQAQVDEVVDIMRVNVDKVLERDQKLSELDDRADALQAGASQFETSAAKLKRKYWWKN

B1: Munc18c, N-terminal His6-fusion protein (protein)
chain: MAPPVSERGLKSVVWRKIKTAVFDDCRKEGEWKIMLLDEFTTKLLSSCCKMTDLLEEGITVIENIYKNREPVRQMKALYFISPTPKSVDCFLRDFGSKSEKKYKAAYIYFTDFCPDSLFNKIKASCSKSIRRCKEINISFIPQESQVYTLDVPDAFYYCYSPDPSNASRKEVVMEAMAEQIVTVCATLDENPGVRYKSKPLDNASKLAQLVEKKLEDYYKIDEKGLIKGKTQSQLLIIDRGFDPVSTVLHELTFQAMAYDLLPIENDTYKYKTDGKEKEAVLEEDDDLWVRVRHRHIAVVLEEIPKLMKEISSTKKATEGKTSLSALTQLMKKMPHFRKQISKQVVHLNLAEDCMNKFKLNIEKLCKTEQDLALGTDAEGQRVKDSMLVLLPVLLNKNHDNCDKIRAVLLYIFGINGTTEENLDRLIHNVKIEDDSDMIRNWSHLGVPIVPPSQQAKPLRKDRSAEETFQLSRWTPFIKDIMEDAIDNRLDSKEWPYCSRCPAVWNGSGAVSARQKPRTNYLELDRKNGSRLIIFVIGGITYSEMRCAYEVSQAHKSCEVIIGSTHILTPRKLLDDIKMLNKSKDKVSFKDE
In the case of B1, the binding result in assay [1] and in assay [2] was “binds” in each case.
